Laboratory results: article PMC3463355

What was measured:
[1] = target: nucleosome (of the N-parp/nucleosome complexes, data not shown); assay: SEC-MALS
[2] = target: N-parp (N-terminal half of PARP-1, amino acids 1-486) (human) (UniProt P09874); assay: FRET or BRET
[3] = target: full-length human PARP-1 [change] (human) (UniProt P09874); assay: FRET or BRET
[4] = target: N-parp (Zn1-Zn3 and BRCT) (UniProt P09874); assay: HI-FI FRET
[5] = target: PARP-1 (full-length) V762A (human) (UniProt P09874); assay: HI-FI FRET
Sequence of PARP-1 (full-length) V762A (human) (P09874 whole entry V762A): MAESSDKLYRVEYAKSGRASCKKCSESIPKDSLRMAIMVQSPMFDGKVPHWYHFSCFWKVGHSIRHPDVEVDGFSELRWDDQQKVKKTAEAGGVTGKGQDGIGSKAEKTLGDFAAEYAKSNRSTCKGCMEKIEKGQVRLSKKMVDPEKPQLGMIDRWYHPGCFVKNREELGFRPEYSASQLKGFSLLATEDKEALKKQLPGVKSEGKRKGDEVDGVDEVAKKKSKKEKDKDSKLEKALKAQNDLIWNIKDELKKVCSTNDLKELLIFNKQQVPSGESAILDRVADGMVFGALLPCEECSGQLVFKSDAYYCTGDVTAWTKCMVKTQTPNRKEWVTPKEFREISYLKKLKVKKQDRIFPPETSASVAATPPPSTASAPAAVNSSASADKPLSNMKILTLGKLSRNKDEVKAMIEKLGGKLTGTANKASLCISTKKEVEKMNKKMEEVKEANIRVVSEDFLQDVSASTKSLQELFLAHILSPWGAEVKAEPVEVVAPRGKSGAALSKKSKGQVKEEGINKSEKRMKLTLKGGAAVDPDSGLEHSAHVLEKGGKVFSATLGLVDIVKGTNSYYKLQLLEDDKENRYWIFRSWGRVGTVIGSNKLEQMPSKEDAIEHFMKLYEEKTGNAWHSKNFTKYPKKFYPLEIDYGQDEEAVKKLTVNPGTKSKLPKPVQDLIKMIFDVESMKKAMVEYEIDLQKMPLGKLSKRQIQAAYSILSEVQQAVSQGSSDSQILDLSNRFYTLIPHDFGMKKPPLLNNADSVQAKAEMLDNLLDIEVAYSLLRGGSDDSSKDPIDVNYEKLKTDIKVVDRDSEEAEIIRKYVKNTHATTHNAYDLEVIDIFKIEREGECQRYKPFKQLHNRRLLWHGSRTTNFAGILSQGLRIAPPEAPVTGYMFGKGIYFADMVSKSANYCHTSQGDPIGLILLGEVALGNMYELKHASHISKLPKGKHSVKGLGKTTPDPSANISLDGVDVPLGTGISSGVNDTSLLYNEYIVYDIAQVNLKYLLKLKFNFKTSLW

[6] = target: Nuc165, unlabeled mononucleosome on 165-bp 601 DNA; assay: SEC-MALS
[7] = target: Nuc207, mononucleosome on 207-bp 601 DNA as used for SEC-MALS; assay: SEC-MALS

Sequence of N-parp (N-terminal half of PARP-1, amino acids 1-486) (human) (P09874 1-486): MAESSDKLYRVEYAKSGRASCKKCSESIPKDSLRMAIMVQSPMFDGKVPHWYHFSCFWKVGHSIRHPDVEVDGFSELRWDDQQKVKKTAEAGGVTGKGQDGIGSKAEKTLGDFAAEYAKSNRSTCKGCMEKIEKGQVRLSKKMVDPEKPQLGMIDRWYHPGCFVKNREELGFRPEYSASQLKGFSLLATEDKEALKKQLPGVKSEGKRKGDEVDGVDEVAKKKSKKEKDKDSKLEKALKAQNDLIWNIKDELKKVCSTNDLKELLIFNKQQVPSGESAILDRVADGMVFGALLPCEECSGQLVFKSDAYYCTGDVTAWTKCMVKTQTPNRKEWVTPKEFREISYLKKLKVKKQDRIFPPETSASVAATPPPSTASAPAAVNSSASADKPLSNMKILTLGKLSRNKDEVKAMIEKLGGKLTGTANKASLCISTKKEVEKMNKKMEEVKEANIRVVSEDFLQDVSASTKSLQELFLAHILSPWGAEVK
Sequence of N-parp (Zn1-Zn3 and BRCT) (P09874 1-486): as above
Sequence of full-length human PARP-1 [change] (human) (P09874 whole entry V762A): as the sequence (P09874 whole entry V762A) above
Sequence of N-parp (N-terminal half of PARP-1, amino acids 1-486) (P09874 1-486): as the sequence (P09874 1-486) above

| Substance | Kd [2] [nM] | Kd [4] [nM] | Kd [5] [nM] | other results |
| --- | --- | --- | --- | --- |
| N-parp (N-terminal half of PARP-1, amino acids 1-486) (from UniProt P09874 1-486) (domain or fragment) |  |  |  | stoichiometry N [1]: 1 |
| Nuc165 |  | 57.8 | 2.2 |  |
| Nuc178 |  | 238 | 84.6 |  |
| Nuc207 |  | 48.8 | 1 |  |
| full-length human PARP-1 [change] (from UniProt P09874) (enzyme) |  |  |  | stoichiometry N [6]: 1; stoichiometry N [7]: 1 |

Further lines, with some results ahead:

| Kd [2] [nM] | Substance | Kd [4] [nM] | Kd [5] [nM] | other results |
| --- | --- | --- | --- | --- |
| > 500 | Nuc147, mononucleosome on 147-bp 601 DNA, labeled with ATTO 647N at histone H4 [change] (complex) |  |  | Kd [3]: > 500 nM |
| 57.8 | Nuc165, mononucleosome on 165-bp 601 DNA, labeled with ATTO 647N at histone H4 [change] (complex) |  |  | Kd [3]: 2.2 nM |
| 48.8 | Nuc207, mononucleosome on 207-bp 601 DNA, labeled with ATTO 647N at histone H4 [change] (complex) |  |  |  |
